{"source": "patent US20230272055A1", "about": "(Incyte, published 2023)", "target": "T1, human mutCALR on BaF3 cells stably expressing human MPL and human mutCALR (MPL-mutCALR cells) (human)", "T1 construct": "also called mutant calreticulin", "T1 chain": "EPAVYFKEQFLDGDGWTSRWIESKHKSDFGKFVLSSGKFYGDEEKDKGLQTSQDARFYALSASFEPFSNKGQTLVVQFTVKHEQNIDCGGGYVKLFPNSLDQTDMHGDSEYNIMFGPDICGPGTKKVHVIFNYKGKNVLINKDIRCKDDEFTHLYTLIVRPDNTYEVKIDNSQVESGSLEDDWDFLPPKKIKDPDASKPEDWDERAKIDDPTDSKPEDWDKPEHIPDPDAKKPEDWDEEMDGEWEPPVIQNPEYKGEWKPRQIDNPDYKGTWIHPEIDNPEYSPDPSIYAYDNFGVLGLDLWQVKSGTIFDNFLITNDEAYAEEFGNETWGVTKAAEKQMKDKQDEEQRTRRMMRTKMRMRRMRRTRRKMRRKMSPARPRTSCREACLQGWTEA", "test": "flow cytometry, BaF3 MPL-mutCALR cells", "protocol": "On the day of the assay, cells were washed and resuspended in assay buffer. Approximately 200,000 cells/well were added to 96-well plates and stained with the indicated concentration of antibodies for 30 minutes on ice. Cells were then washed and stained with goat anti-human secondary conjugated to R-phycoerythrin (R-PE) (Jackson Immuno Research Laboratories) for 30 minutes on ice. The cells were then washed and analyzed by flow cytometry."}
{"binder": "anti-mutCALR antibody clone 62 (antibody, human IgG1, lambda, N297A, V domains shown) VH: EVQLVQSGAEVKKPGASVKVSCKVSGYTLTELSMQWVRQAPGKGLEWMGGFDPDSGETMYAEKFQGRLTVTEDTSTDTVYMELSSLRSEDTAVYFCATSPGYDFFDYWGQGTLVTVSS VL: QSALTQPASVSGSPGQSITISCTGTSSDVGGYNYVSWYQQHPGKAPKLMIYEVSNRPSGVSNRFSGSNSGNTATLTINRVEAGDEADYYCQVWDSSNDLLIFGGGTKLTVLG", "values": [{"measurement": "EC50", "result": 5.4, "unit": "ng/mL"}, {"measurement": "MPL-mutCALR AUC", "result": 58800}]}
{"binder": "anti-mutCALR antibody clone 177 (antibody, human IgG1, lambda, N297A, V domains shown) VH: EVQLVQSGAEVKKPGASVKVSCKVSGYTLTELSMQWVRQAPGKGLEWMGGFDPDSGETMYAEKFQGRLTVTEDTSTDTVYMELSSLRSEDTAVYFCATSPGYDFFDYWGQGTLVTVSS VL: SYVLTQPPSVSVAPGQTARITCGGSDIGDEIVHWYQQKPGQAPVLVVYDDSDRPSGIPERFSGSNSGNTATLTISRAQAGDEADYYCQVWDSSSDHLIFGGGTKLTVLG", "values": [{"measurement": "EC50", "result": 3.4, "unit": "ng/mL"}, {"measurement": "MPL-mutCALR AUC", "result": 52900}]}
{"binder": "anti-mutCALR antibody clone 178 (antibody, human IgG1, lambda, N297A, V domains shown) VH: EVQLVQSGAEVKKPGASVKVSCKVSGYTLTELSMQWVRQAPGKGLEWMGGFDPDEGETMYAEKFQGRLTVTEDTSTDTVYMELSSLRSEDTAVYFCATSPGYDFFDYWGQGTLVTVSS VL: SYVLTQPPSVSVAPGQTARITCGGSDIGDEIVHWYQQKPGQAPVLVVYDDSDRPSGIPERFSGSNSGNTATLTISRAQAGDEADYYCQVWDSSSDHLIFGGGTKLTVLG", "values": [{"measurement": "EC50", "result": 4.1, "unit": "ng/mL"}, {"measurement": "MPL-mutCALR AUC", "result": 63600}]}
{"binder": "anti-mutCALR antibody clone 176 (antibody, human IgG1, lambda, N297A, V domains shown) VH: EVQLVQSGAEVKKPGASVKVSCKVSGYTLTELSMQWVRQAPGKGLEWMGGFDPDAGETMYAEKFQGRLTVTEDTSTDTVYMELSSLRSEDTAVYFCATSPGYDFFDYWGQGTLVTVSS VL: SYVLTQPPSVSVAPGQTARITCGGSDIGDEIVHWYQQKPGQAPVLVVYDDSDRPSGIPERFSGSNSGNTATLTISRAQAGDEADYYCQVWDSSSDHLIFGGGTKLTVLG", "values": [{"measurement": "EC50", "result": 3.1, "unit": "ng/mL"}, {"measurement": "MPL-mutCALR AUC", "result": 48400}]}
{"binder": "anti-mutCALR antibody clone 179 (antibody, human IgG1, lambda, N297A, V domains shown) VH: EVQLVQSGAEVKKPGASVKVSCKVSGYTLTELSMQWVRQAPGKGLEWMGGFDPDDAETMYAEKFQGRLTVTEDTSTDTVYMELSSLRSEDTAVYFCATSPGYDFFDYWGQGTLVTVSS VL: SYVLTQPPSVSVAPGQTARITCGGSDIGDEIVHWYQQKPGQAPVLVVYDDSDRPSGIPERFSGSNSGNTATLTISRAQAGDEADYYCQVWDSSSDHLIFGGGTKLTVLG", "values": [{"measurement": "EC50", "result": 5.8, "unit": "ng/mL"}, {"measurement": "MPL-mutCALR AUC", "result": 60200}]}
{"binder": "anti-mutCALR antibody clone 70 (antibody, human IgG1, lambda, N297A, V domains shown) VH: EVQLVQSGAEVKKPGASVKVSCKVSGYTLTELSMQWVRQAPGKGLEWMGGFDPDDGETMYAEKFQGRLTVTEDTSTDTVYMELSSLRSEDTAVYFCATSPGYDFFDYWGQGTLVTVSS VL: SYVLTQPPSVSVAPGKTARITCTGTSSDVGGYNYVSWYQQKPGQAPVLVVYEVSNRPSGIPERFSGSNSGNTATLTISRVEAGDEADYYCQVWDSSNDLLIFGGGTKLTVLG", "values": [{"measurement": "EC50", "result": 1.9, "unit": "ng/mL"}, {"measurement": "MPL-mutCALR AUC", "result": 84800}]}
{"binder": "anti-mutCALR antibody clone 68 (antibody, human IgG1, lambda, N297A, V domains shown) VH: EVQLVQSGAEVKKPGASVKVSCKVSGYTLTELSMQWVRQAPGKGLEWMGGFDPDEGETMYAEKFQGRLTVTEDTSTDTVYMELRSLTSEDTALYFCATSPGYDFFDYWGQGTLVTVSS VL: SYVLTQPPSVSVAPGKTARITCTGTSSDVGGYNYVSWYQQKPGQAPVLVVYEVSNRPSGIPERFSGSNSGNTATLTISRVEAGDEADYYCQVWDSSNDLLIFGGGTKLTVLG", "values": [{"measurement": "EC50", "result": 3.3, "unit": "ng/mL"}, {"measurement": "MPL-mutCALR AUC", "result": 68700}]}
{"binder": "anti-mutCALR antibody clone 73 (antibody, human IgG1, lambda, N297A, V domains shown) VH: EVQLVQSGAEVKKPGASVKVSCKVSGYTLTELSMQWVRQAPGKGLEWMGGFDPDEGETMYAEKFQGRLTVTEDTSTDTVYMELSSLRSEDTAVYFCATSPGYDFFDYWGQGTLVTVSS VL: SYVLTQPPSVSVAPGKTARITCTGTSSDVGGYNYVSWYQQKPGQAPVLVVYEVSNRPSGIPERFSGSNSGNTATLTISRVEAGDEADYYCQVWDSSNDLLIFGGGTKLTVLG", "values": [{"measurement": "EC50", "result": 2, "unit": "ng/mL"}, {"measurement": "MPL-mutCALR AUC", "result": 67600}]}
{"binder": "anti-mutCALR antibody clone 64 (antibody, human IgG1, lambda, N297A, V domains shown) VH: EVQLVQSGAEVKKPGASVKVSCKVSGYTLTELSMQWVRQAPGKGLEWMGGFDPDDAETMYAEKFQGRLTVTEDTSTDTVYMELSSLRSEDTAVYFCATSPGYDFFDYWGQGTLVTVSS VL: QSALTQPASVSGSPGQSITISCTGTSSDVGGYNYVSWYQQHPGKAPKLMIYEVSNRPSGVSNRFSGSNSGNTATLTINRVEAGDEADYYCQVWDSSNDLLIFGGGTKLTVLG", "values": [{"measurement": "EC50", "result": 7.2, "unit": "ng/mL"}, {"measurement": "MPL-mutCALR AUC", "result": 73200}]}
{"binder": "anti-mutCALR antibody clone 74 (antibody, human IgG1, lambda, N297A, V domains shown) VH: EVQLVQSGAEVKKPGASVKVSCKVSGYTLTELSMQWVRQAPGKGLEWMGGFDPDDAETMYAEKFQGRLTVTEDTSTDTVYMELSSLRSEDTAVYFCATSPGYDFFDYWGQGTLVTVSS VL: SYVLTQPPSVSVAPGKTARITCTGTSSDVGGYNYVSWYQQKPGQAPVLVVYEVSNRPSGIPERFSGSNSGNTATLTISRVEAGDEADYYCQVWDSSNDLLIFGGGTKLTVLG", "values": [{"measurement": "EC50", "result": 2.2, "unit": "ng/mL"}, {"measurement": "MPL-mutCALR AUC", "result": 81800}]}
{"binder": "anti-mutCALR antibody clone 63 (antibody, human IgG1, lambda, N297A, V domains shown) VH: EVQLVQSGAEVKKPGASVKVSCKVSGYTLTELSMQWVRQAPGKGLEWMGGFDPDEGETMYAEKFQGRLTVTEDTSTDTVYMELSSLRSEDTAVYFCATSPGYDFFDYWGQGTLVTVSS VL: QSALTQPASVSGSPGQSITISCTGTSSDVGGYNYVSWYQQHPGKAPKLMIYEVSNRPSGVSNRFSGSNSGNTATLTINRVEAGDEADYYCQVWDSSNDLLIFGGGTKLTVLG", "values": [{"measurement": "EC50", "result": 5.5, "unit": "ng/mL"}, {"measurement": "MPL-mutCALR AUC", "result": 69100}]}
{"binder": "anti-mutCALR antibody clone 65 (antibody, human IgG1, lambda, N297A, V domains shown) VH: EVQLVQSGAEVKKPGASVKVSCKVSGYTLTELSMQWVRQAPGKGLEWMGGFDPDDGETMYAEKFQGRLTVTEDTSTDTVYMELRSLTSEDTALYFCATSPGYDFFDYWGQGTLVTVSS VL: SYVLTQPPSVSVAPGKTARITCTGTSSDVGGYNYVSWYQQKPGQAPVLVVYEVSNRPSGIPERFSGSNSGNTATLTISRVEAGDEADYYCQVWDSSNDLLIFGGGTKLTVLG", "values": [{"measurement": "EC50", "result": 5.9, "unit": "ng/mL"}, {"measurement": "MPL-mutCALR AUC", "result": 81200}]}
{"binder": "anti-mutCALR antibody clone 67 (antibody, human IgG1, lambda, N297A, V domains shown) VH: EVQLVQSGAEVKKPGASVKVSCKVSGYTLTELSMQWVRQAPGKGLEWMGGFDPDSGETMYAEKFQGRLTVTEDTSTDTVYMELRSLTSEDTALYFCATSPGYDFFDYWGQGTLVTVSS VL: SYVLTQPPSVSVAPGKTARITCTGTSSDVGGYNYVSWYQQKPGQAPVLVVYEVSNRPSGIPERFSGSNSGNTATLTISRVEAGDEADYYCQVWDSSNDLLIFGGGTKLTVLG", "values": [{"measurement": "EC50", "result": 8.1, "unit": "ng/mL"}, {"measurement": "MPL-mutCALR AUC", "result": 63900}]}
{"binder": "anti-mutCALR antibody clone 69 (antibody, human IgG1, lambda, N297A, V domains shown) VH: EVQLVQSGAEVKKPGASVKVSCKVSGYTLTELSMQWVRQAPGKGLEWMGGFDPDDAETMYAEKFQGRLTVTEDTSTDTVYMELRSLTSEDTALYFCATSPGYDFFDYWGQGTLVTVSS VL: SYVLTQPPSVSVAPGKTARITCTGTSSDVGGYNYVSWYQQKPGQAPVLVVYEVSNRPSGIPERFSGSNSGNTATLTISRVEAGDEADYYCQVWDSSNDLLIFGGGTKLTVLG", "values": [{"measurement": "EC50", "result": 2.1, "unit": "ng/mL"}, {"measurement": "MPL-mutCALR AUC", "result": 71800}]}
{"binder": "anti-mutCALR antibody clone 72 (antibody, human IgG1, lambda, N297A, V domains shown) VH: EVQLVQSGAEVKKPGASVKVSCKVSGYTLTELSMQWVRQAPGKGLEWMGGFDPDSGETMYAEKFQGRLTVTEDTSTDTVYMELSSLRSEDTAVYFCATSPGYDFFDYWGQGTLVTVSS VL: SYVLTQPPSVSVAPGKTARITCTGTSSDVGGYNYVSWYQQKPGQAPVLVVYEVSNRPSGIPERFSGSNSGNTATLTISRVEAGDEADYYCQVWDSSNDLLIFGGGTKLTVLG", "values": [{"measurement": "EC50", "result": 3.3, "unit": "ng/mL"}, {"measurement": "MPL-mutCALR AUC", "result": 58000}]}
{"binder": "anti-mutCALR antibody clone 66 (antibody, human IgG1, lambda, N297A, V domains shown) VH: EVQLVQSGAEVKKPGASVKVSCKVSGYTLTELSMQWVRQAPGKGLEWMGGFDPDAGETMYAEKFQGRLTVTEDTSTDTVYMELRSLTSEDTALYFCATSPGYDFFDYWGQGTLVTVSS VL: SYVLTQPPSVSVAPGKTARITCTGTSSDVGGYNYVSWYQQKPGQAPVLVVYEVSNRPSGIPERFSGSNSGNTATLTISRVEAGDEADYYCQVWDSSNDLLIFGGGTKLTVLG", "values": [{"measurement": "EC50", "result": 5.8, "unit": "ng/mL"}, {"measurement": "MPL-mutCALR AUC", "result": 65000}]}
{"binder": "anti-mutCALR antibody clone 71 (antibody, human IgG1, lambda, N297A, V domains shown) VH: EVQLVQSGAEVKKPGASVKVSCKVSGYTLTELSMQWVRQAPGKGLEWMGGFDPDAGETMYAEKFQGRLTVTEDTSTDTVYMELSSLRSEDTAVYFCATSPGYDFFDYWGQGTLVTVSS VL: SYVLTQPPSVSVAPGKTARITCTGTSSDVGGYNYVSWYQQKPGQAPVLVVYEVSNRPSGIPERFSGSNSGNTATLTISRVEAGDEADYYCQVWDSSNDLLIFGGGTKLTVLG", "values": [{"measurement": "EC50", "result": 9.7, "unit": "ng/mL"}, {"measurement": "MPL-mutCALR AUC", "result": 55900}]}
